Among the data in publication PMC6884320 are pKa values, retold here.

One may read the pKa as the negative logarithm of the acid dissociation constant.

For the data set, the system named is Glu92. The data set can be described thus: kinetics.

For the substance “AlleyCat2 (second-round evolved AlleyCat) (M144R; other substitutions not stated (includes the AlleyCat mutation that gives Glu92))”, the pKa runs as follows: (not stated (Figure S14 not available), Ca2+-bound, turning over leflunomide) 7.06 ± 0.02; (turning over the Kemp elimination substrate, cited from earlier work) 6.73 ± 0.03.
